In article PMC5010500 (Journal of molecular biology, 2016):

Legend:
[1] = molecular target: T1, human Keap1 Kelch domain (residues 322-624) (human, UniProt Q14145 322-624); test: ITC
[2] = molecular target: T1, human Keap1 Kelch domain (residues …); test: native MS
[3] = molecular target: full length human Keap1 (human, UniProt Q14145 1-624); test: […]
[4] = molecular target: the molecule itself; test: […]

T1 sequence (Q14145 322-624): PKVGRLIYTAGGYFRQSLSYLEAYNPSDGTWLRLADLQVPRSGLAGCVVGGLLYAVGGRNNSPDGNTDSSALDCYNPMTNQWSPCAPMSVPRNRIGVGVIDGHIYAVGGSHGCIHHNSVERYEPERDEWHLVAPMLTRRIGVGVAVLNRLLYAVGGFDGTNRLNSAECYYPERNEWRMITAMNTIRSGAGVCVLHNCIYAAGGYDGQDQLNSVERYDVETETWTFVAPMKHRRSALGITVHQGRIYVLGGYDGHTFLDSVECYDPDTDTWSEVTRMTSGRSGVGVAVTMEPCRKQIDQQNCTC
Sequence of full length human Keap1 (Q14145 whole entry): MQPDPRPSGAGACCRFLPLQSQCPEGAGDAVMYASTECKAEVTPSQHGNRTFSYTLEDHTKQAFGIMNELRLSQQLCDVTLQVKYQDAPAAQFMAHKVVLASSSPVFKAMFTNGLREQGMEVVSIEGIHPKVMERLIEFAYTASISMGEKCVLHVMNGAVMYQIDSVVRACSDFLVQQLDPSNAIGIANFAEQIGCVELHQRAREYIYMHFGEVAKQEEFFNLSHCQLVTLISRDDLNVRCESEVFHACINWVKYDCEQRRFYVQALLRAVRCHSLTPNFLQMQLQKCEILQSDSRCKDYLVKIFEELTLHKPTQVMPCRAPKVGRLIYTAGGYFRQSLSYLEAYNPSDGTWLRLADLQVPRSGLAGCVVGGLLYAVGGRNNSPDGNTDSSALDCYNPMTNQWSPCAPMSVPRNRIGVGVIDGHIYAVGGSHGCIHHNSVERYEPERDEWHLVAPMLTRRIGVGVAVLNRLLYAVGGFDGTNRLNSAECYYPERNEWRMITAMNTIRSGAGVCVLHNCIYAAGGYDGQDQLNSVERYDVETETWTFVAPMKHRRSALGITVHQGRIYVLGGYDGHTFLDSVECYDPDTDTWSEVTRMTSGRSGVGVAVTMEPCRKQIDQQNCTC

Binder	Kd [1] [nM]	stoichiometry N [2]	stoichiometry N [3]	stoichiometry N [4]
MBP-tagged mVP24 N-terminal truncation (residues 22-253) (domain or fragment) DLNSTARWIKEPSVGGWTVKWGNFVFHIPNTGMTLLHHLKSNFVVPEWQQTRNLFSHLFKNPKSTIIEPFLALRILLGVALKDQELQQSLIPGFRSIVHMLSEWLLLEVTSAIHISPNLLGIYLTSDMFKILMAGVKNFFNKMFTLHVVNDHGKPSSIEIKLTGQQIIITRVNMGFLVEVRRIDIEPCCGETVLSESVVFGLVAEAVLREHSQMEKGQPLNLTQYMNSKIAI	77 ± 4			
MBP-tagged Marburg virus viral protein 24, wild type, full length (natural protein) MAELSTRYNLPANVTENSINLDLNSTARWIKEPSVGGWTVKWGNFVFHIPNTGMTLLHHLKSNFVVPEWQQTRNLFSHLFKNPKSTIIEPFLALRILLGVALKDQELQQSLIPGFRSIVHMLSEWLLLEVTSAIHISPNLLGIYLTSDMFKILMAGVKNFFNKMFTLHVVNDHGKPSSIEIKLTGQQIIITRVNMGFLVEVRRIDIEPCCGETVLSESVVFGLVAEAVLREHSQMEKGQPLNLTQYMNSKIAI		1	1 mVP24 per Keap1 (2:2)	2
